Experiment [1] deals with 30S–IF3DL complex (UniProt P0A707). Nature of the experiment: other fluorescence titration; equilibrium; preformed 30S–IF3DL (0.5 µM) titrated with IF1 (0.1-2 µM); intramolecular FRET of IF3DL; HAKM10 buffer; one-site binding fit.
Experiment [2] has the same target. Put plainly: stopped-flow fluorescence; pre-steady state; preformed 30S–IF3DL (0.1 µM) mixed with a 10-fold molar excess of IF1 (1 µM); intramolecular FRET of IF3DL; TAKM10 buffer, 25 °C; single exponential fit; apparent rate constant.
In experiment [3] the target is 30S subunit (minor ribosomal subunit). Nature of the experiment: stopped-flow fluorescence; pre-steady state; 30S subunits (0.1 µM) mixed with equimolar IF3DL; intramolecular FRET of IF3DL; TAKM10 buffer, 25 °C; fit with two exponential terms; apparent rate constants.

B1: Initiation factor IF1 (natural protein)
chain: MAKEDNIEMQGTVLETLPNTMFRVELENGHVVTAHISGKMRKNYIRILTGDKVTVELTPYDLSKGRIVFRSR
B1 displayed a Kd with 30S–IF3DL complex [1] of 100 nM. The kapp (IF1-dependent FRET change at 1 µM IF1; a step after the initial binding) with 30S–IF3DL complex [2] amounted to 0.26 s⁻¹.

B2: IF3DL (double-labeled IF3; IF3 E166C with Atto-540Q at the CTD and Atto-488 at the NTD) (natural protein)
chain: MKGGKRVQTARPNRINGEIRAQEVRLTGLEGEQLGIVSLREALEKAEEAGVDLVEISPNAEPPVCRIMDYGKFLYEKSKSSKEQKKKQKVIQVKEIKFRPGTDEGDYQVKLRSLIRFLEEGDKAKITLRFRGREMAHQQIGMEVLNRVKDDLQELAVVESFPTKICGRQMIMVLAPKKKQ
modifications: Atto-540Q maleimide on the recombinant cysteine 166 (E166C, CTD); Atto-488 maleimide on the natural cysteine 65 (NTD)
On to B2, for which, in experiment [3], the kapp1 (initial bimolecular encounter, 0.1 µM each) was 16 s⁻¹.

A word on the Kd: it is a measure of binding affinity in units of concentration.

Values taken from publication PMC5187519.
